Data as given in paper PMC8995355 (Molecular cell, 2022).
Values belong to the molecule of their own block, whether it stands above or below them. Square brackets hold non-standard residues; d marks the D form. Ends that are not written are not given here. pS = N[C@@H](COP(=O)(O)O)C(=O)O

What was measured:
[1] = molecular target: RIF1 (UniProt Q5UIP0); test: biotin-peptide streptavidin pull-down, RIF1 blot
[2] = molecular target: Cy5-53BP1(166-182) pS176/pS178; pS176/pS178 (S) (human) (UniProt Q12888); test: fluorescence polarisation
[3] = molecular target: T1, RIF1(1-980), recombinant N-terminal fragment with the HEAT repeat-rich NTD (human, UniProt Q5UIP0 1-980); test: fluorescence polarisation
T1 sequence (looked up): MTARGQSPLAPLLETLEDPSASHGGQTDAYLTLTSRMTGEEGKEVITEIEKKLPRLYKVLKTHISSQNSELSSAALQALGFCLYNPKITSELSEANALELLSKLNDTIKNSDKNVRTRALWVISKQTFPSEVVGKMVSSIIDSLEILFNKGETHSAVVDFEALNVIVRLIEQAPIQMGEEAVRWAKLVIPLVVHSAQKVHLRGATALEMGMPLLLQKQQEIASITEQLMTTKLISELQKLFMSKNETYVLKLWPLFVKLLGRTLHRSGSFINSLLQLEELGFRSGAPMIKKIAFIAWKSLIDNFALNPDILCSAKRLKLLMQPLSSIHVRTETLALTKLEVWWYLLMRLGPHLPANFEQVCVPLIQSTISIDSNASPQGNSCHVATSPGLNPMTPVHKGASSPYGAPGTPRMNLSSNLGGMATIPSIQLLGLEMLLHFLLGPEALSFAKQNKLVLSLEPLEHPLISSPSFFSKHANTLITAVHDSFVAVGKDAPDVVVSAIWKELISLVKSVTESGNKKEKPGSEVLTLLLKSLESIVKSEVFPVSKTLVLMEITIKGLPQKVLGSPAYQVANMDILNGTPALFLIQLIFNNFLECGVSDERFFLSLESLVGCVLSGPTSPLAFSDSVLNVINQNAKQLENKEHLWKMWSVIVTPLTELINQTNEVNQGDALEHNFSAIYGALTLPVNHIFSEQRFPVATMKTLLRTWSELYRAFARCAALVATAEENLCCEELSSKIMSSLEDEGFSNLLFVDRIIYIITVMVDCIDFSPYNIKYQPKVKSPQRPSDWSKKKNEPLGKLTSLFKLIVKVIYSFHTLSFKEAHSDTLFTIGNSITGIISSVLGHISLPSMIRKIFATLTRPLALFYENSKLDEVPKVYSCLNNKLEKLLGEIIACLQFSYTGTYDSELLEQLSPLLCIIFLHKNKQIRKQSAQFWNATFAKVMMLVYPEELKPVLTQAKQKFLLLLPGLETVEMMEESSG

binding against the reference ([1]; reference: unphosphorylated peptide (T696/S698), sites T696,S698): stronger
Molecule: 53BP1 686-702 (from UniProt Q12888) pT696/pS698 peptide

Kd [2]: 2 µM
Molecule: RIF1(1-980), recombinant N-terminal fragment with the HEAT repeat-rich NTD (from UniProt Q5UIP0 1-980) (domain or fragment)

Second part, the molecule before the results:

Molecule: 53BP1 511-527 (from UniProt Q12888) pS518/pS520 peptide
binding against the reference ([1]; reference: unphosphorylated peptide (S518/S520), sites S518,S520): stronger

B1: Cy5-53BP1(166-182) pS176/pS178 E174A; pS176/pS178 (S) E174A (peptide, UniProt Q12888 166-182, looked up)
peptide: Cy5-SQLGFGVLAL[pS]Q[pS]QDVE
binding result [3]: binds

B2: Cy5-53BP1(166-182) S176E/pS178; S176E/pS178 (S) (peptide, UniProt Q12888 166-182, looked up)
peptide: Cy5-SQLGFGVLELEQ[pS]QDVE
binding result [3]: binds
